Article PMC10999750

Columns and labels:
Experiment in all cases: fluorescence polarisation; FITC-tagged peptide ('2 nm' [sic]) with importin two-fold serially diluted from 4.5 µM across 23 wells, 200 µl, GST Buffer A (50 mM Tris, 125 mM NaCl); three independent experiments
[1] = biological target: Synthetic FITC labelled AAV 09YN Cap-BR peptide (residues 117-167)
[2] = biological target: AAV 09YN Cap-BR-mMAJOR (FITC labelled peptide, residues 117-167, major site mutant)
[3] = biological target: AAV 09YN Cap-BR-mMINOR (FITC labelled peptide, residues 117-167, minor site mutant)
[4] = biological target: AAV 09YN Cap-BR-mMINOR+mMAJOR (FITC labelled peptide, residues 117-167, minor and major site mutant)

Work on “Human importin α1 lacking the IBB domain (hImpα1DIBB) (domain or fragment)” yielded a Kd [1] of 483 nM.

Substance “Human importin α3 lacking the IBB domain (hImpα3DIBB) (domain or fragment)” has a Kd [2] of 1.2 nM, a Kd [3] of 1.6 nM and a Kd [4] of 1.4 nM. It also gave a Kd [1] of 1 nM.

In the case of “Human importin α5 lacking the IBB domain (hImp5DIBB) (domain or fragment)”, the Kd [1] is reported as 862 nM.

Substance “Human importin α7 lacking the IBB domain (hImpα7DIBB) (domain or fragment)” has a Kd [1] of 11 nM.

With “Human importin β (hImpβ) (from UniProt Q14974 1-876) (natural protein)” the Kd [1] was 1140 nM.
